In US10253076B2, “Peptides and combination of peptides for use in immunotherapy against ovarian cancer and other cancers” (immatics biotechnologies GmbH, priority 2015, dated 2019):

Target: HLA-A*02:01 (Homo sapiens, UniProt P04439, D140Y/D185E/D98H/E176V/E277Q/G131W/G231S/I119V/I121R/I166T/I218V/L300P/L318F/N151K/N90K/P208A/P217A/Q86G/Q94H/R138H/R169H/T345S)
Experiment: MHC binding assay (UV-ligand exchange, beta2m ELISA, peptide exchange yield)
Settings: binding of HLA-class I restricted peptides to HLA-A*02:01, ranged by peptide exchange yield (UV-ligand exchange, β2m ELISA)
How it was run: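 Peptide–HLA-A*02:01 complexes made by UV-mediated exchange of a photocleavable peptide with the test peptide. Exchange products diluted 100-fold on streptavidin-coated plates, 1 h at 37°C, then HRP anti-β2m 1 h at 37°C; TMB read at 450 nm to give exchange yield.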

Substance | Peptide exchange
351 (SLIPNLRNV; listed as Homo sapiens) [compound 351] | ″+++″ (≥50% = +++)
198 (KTINKVPTV; listed as Homo sapiens) [compound 198] | ″+++″ (≥50% = +++)
4 (GIMEHITKI; listed as Homo sapiens) [compound 4] | ″++++″ (≥75% = ++++)
75 (GLLEVMVNL; listed as Homo sapiens) [compound 75] | ″+++″ (≥50% = +++)
131 (FVPPVTVFPSL; listed as Homo sapiens) [compound 131] | ″++″ (≥20% = ++)
47 (ILLSVPLLVV; listed as Homo sapiens) [compound 47] | ″++″ (≥20% = ++)
137 (TLVLTLPTV; listed as Homo sapiens) [compound 137] | ″++++″ (≥75% = ++++)
82 (FLSSVTYNL; listed as Homo sapiens) [compound 82] | ″+++″ (≥50% = +++)
350 (ALLDVTHSELTV; listed as Homo sapiens) [compound 350] | ″+++″ (≥50% = +++)
125 (VQIHQVAQV; listed as Homo sapiens) [compound 125] | ″+++″ (≥50% = +++)
200 (LLFGSVQEV; listed as Homo sapiens) [compound 200] | ″+++″ (≥50% = +++)
307 (ALPVSLPQI; listed as Homo sapiens) [compound 307] | ″+++″ (≥50% = +++)
22 (IMEENPGIFAV; listed as Homo sapiens) [compound 22] | ″+++″ (≥50% = +++)
340 (ALLSMTFPL; listed as Homo sapiens) [compound 340] | ″++++″ (≥75% = ++++)
207 (GLTSTNAEV; listed as Homo sapiens) [compound 207] | ″++″ (≥20% = ++)
227 (ALMNTLLYL; listed as Homo sapiens) [compound 227] | ″++″ (≥20% = ++)
348 (ILLDVKTRL; listed as Homo sapiens) [compound 348] | ″++++″ (≥75% = ++++)

Substance | Peptide exchange
300 (ALLGQTFSL; listed as Homo sapiens) [compound 300] | ″+++″ (≥50% = +++)
231 (FLSPQQPPLLL; listed as Homo sapiens) [compound 231] | ″++″ (≥20% = ++)
191 (LLQEGQALEYV; listed as Homo sapiens) [compound 191] | ″++″ (≥20% = ++)
197 (ALGPEGGRV; listed as Homo sapiens) [compound 197] | ″++″ (≥20% = ++)
288 (NLINEINGV; listed as Homo sapiens) [compound 288] | ″+++″ (≥50% = +++)
111 (YVWGFYPAEV; listed as Homo sapiens) [compound 111] | ″+++″ (≥50% = +++)
164 (ALLPQPKNLTV; listed as Homo sapiens) [compound 164] | ″+++″ (≥50% = +++)
281 (ILRESTEEL; listed as Homo sapiens) [compound 281] | ″+++″ (≥50% = +++)
139 (SVMEVNSGIYRV; listed as Homo sapiens) [compound 139] | ″+++″ (≥50% = +++)
324 (FLYDEIEAEV; listed as Homo sapiens) [compound 324] | ″+++″ (≥50% = +++)
95 (SVIPQIQKV; listed as Homo sapiens) [compound 95] | ″+++″ (≥50% = +++)
211 (LLWPGAALL; listed as Homo sapiens) [compound 211] | ″++″ (≥20% = ++)
123 (NLWDLTDASVV; listed as Homo sapiens) [compound 123] | ″+++″ (≥50% = +++)
287 (FLNEFFLNV; listed as Homo sapiens) [compound 287] | ″+++″ (≥50% = +++)
234 (ALMEDTGRQML; listed as Homo sapiens) [compound 234] | ″++″ (≥20% = ++)
205 (SLYPGTETMGL; listed as Homo sapiens) [compound 205] | ″+++″ (≥50% = +++)

Second part, the substance after the results:

Peptide exchange | Substance
″+++″ (≥50% = +++) | 449 (KLAEGLDIQL; listed as Homo sapiens) [compound 449]
″++″ (≥20% = ++) | 355 (SIQQSIERLLV; listed as Homo sapiens) [compound 355]
″++″ (≥20% = ++) | 574 (YLLQEPPRTV; listed as Homo sapiens) [compound 574]
″+++″ (≥50% = +++) | 567 (SLLPLDDIVRV; listed as Homo sapiens) [compound 567]
″+++″ (≥50% = +++) | 356 (KLLGKLPEL; listed as Homo sapiens) [compound 356]
″++++″ (≥75% = ++++) | 621 (VLMDRLPSLL; listed as Homo sapiens) [compound 621]
″+++″ (≥50% = +++) | 468 (YLRSVGDGETV; listed as Homo sapiens) [compound 468]
″+++″ (≥50% = +++) | 486 (AVMESIQGV; listed as Homo sapiens) [compound 486]
″++″ (≥20% = ++) | 398 (KLLEEDGTIITL; listed as Homo sapiens) [compound 398]
″+++″ (≥50% = +++) | 541 (SMLEPVPEL; listed as Homo sapiens) [compound 541]
″++″ (≥20% = ++) | 428 (KLGHTDILVGV; listed as Homo sapiens) [compound 428]
″+++″ (≥50% = +++) | 572 (ALADLIEKELSV; listed as Homo sapiens) [compound 572]
″+++″ (≥50% = +++) | 500 (SLMEDQVLQL; listed as Homo sapiens) [compound 500]
″++″ (≥20% = ++) | 440 (ALADGVTMQV; listed as Homo sapiens) [compound 440]
″+++″ (≥50% = +++) | 606 (ALWETEVYI; listed as Homo sapiens) [compound 606]
″+++″ (≥50% = +++) | 600 (ALAAPDIVPAL; listed as Homo sapiens) [compound 600]
″++″ (≥20% = ++) | 491 (GLNDRSDAV; listed as Homo sapiens) [compound 491]
″++″ (≥20% = ++) | 559 (VTVPPGPSL; listed as Homo sapiens) [compound 559]
″++″ (≥20% = ++) | 402 (VLFSGALLGL; listed as Homo sapiens) [compound 402]
″+++″ (≥50% = +++) | 479 (SLFGNSGILENV; listed as Homo sapiens) [compound 479]
″+++″ (≥50% = +++) | 607 (RLYSGISGLEL; listed as Homo sapiens) [compound 607]
″+++″ (≥50% = +++) | 542 (RVWDISTVSSV; listed as Homo sapiens) [compound 542]
″+++″ (≥50% = +++) | 488 (FLAEDPKVTL; listed as Homo sapiens) [compound 488]
″+++″ (≥50% = +++) | 490 (FLLQHVQEL; listed as Homo sapiens) [compound 490]
″+++″ (≥50% = +++) | 426 (RLADKSVLV; listed as Homo sapiens) [compound 426]
